Earlier results in article PMC5113071.
Read-outs that look alike come from different tables or passages of the source. One block for each substance: values may come before it.

How the values were obtained:
NRP1 (Homo sapiens) [1] = target: NRP1 (Homo sapiens) (UniProt O14786)
[2] = target: alpha-2-macroglobulin fast form (Homo sapiens) (UniProt P01023)
VEGFR2 (Homo sapiens) = VEGFR2 (Homo sapiens) (UniProt P35968)
VEGFR1 (Homo sapiens) = VEGFR1 (Homo sapiens) (UniProt P17948)
[3] = target: alpha-2-macroglobulin (Homo sapiens) (UniProt P01023)
NRP1 (Homo sapiens) [4] = target: NRP1 (Homo sapiens) (UniProt O14786); remark: listed apart in the source

Chain of UniProt P35968 (P35968 20-1356): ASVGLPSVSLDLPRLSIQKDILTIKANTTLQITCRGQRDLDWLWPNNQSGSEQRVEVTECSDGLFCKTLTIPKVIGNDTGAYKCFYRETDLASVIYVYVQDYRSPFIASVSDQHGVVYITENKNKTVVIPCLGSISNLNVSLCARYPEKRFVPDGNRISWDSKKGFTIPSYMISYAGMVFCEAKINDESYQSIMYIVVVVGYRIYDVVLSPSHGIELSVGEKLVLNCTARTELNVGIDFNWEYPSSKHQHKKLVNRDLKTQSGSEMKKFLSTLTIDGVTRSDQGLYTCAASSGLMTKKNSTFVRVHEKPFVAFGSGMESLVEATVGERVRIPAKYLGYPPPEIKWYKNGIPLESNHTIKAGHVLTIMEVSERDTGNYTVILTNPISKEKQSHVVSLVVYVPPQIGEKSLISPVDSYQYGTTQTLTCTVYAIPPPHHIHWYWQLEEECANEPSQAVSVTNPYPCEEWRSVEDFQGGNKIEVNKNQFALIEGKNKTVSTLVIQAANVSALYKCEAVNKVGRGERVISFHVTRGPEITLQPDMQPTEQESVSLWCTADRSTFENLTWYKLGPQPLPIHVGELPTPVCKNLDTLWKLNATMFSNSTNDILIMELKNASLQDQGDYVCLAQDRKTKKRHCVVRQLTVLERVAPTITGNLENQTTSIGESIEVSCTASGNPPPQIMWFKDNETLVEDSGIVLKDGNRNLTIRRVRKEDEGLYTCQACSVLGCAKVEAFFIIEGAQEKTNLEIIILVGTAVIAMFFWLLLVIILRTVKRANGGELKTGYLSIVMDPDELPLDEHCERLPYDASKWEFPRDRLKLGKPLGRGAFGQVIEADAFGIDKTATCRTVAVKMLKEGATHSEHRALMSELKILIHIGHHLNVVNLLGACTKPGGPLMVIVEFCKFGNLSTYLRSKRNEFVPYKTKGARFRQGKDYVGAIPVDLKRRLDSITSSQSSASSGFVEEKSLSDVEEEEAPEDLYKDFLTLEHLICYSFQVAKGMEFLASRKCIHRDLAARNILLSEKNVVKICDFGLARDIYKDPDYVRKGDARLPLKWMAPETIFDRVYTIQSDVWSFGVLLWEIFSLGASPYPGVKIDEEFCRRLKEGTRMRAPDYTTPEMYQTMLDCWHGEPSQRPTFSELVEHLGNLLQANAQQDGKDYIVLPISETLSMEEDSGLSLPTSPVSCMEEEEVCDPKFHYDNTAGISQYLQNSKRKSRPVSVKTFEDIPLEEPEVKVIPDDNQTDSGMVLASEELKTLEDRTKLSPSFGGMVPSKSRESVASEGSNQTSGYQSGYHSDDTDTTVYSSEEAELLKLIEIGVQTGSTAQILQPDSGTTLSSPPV

Kd (NRP1 (Homo sapiens) [1]): 0.312 nM
Substance: VEGF165a and VEGF121 (from UniProt P15692)

Kd [2]: 420 nM
Kd (VEGFR2 (Homo sapiens)): 0.1 nM
Kd (VEGFR1 (Homo sapiens)): 0.033 nM
Kd [3]: 4000 nM
Substance: VEGF165a, VEGF165b and VEGF121 (from UniProt P15692)

Kd (NRP1 (Homo sapiens) [4]): 1.8 nM
Substance: sVEGFR1 (from UniProt P17948)
